Source: paper PMC5477644

Columns and labels:
6His-Ska1/Ska2/Ska3 (WT) = 6His-Ska1/Ska2/Ska3 (WT) (UniProt Q96BD8); experiment: SEC + other: velocity sedimentation on a sucrose gradient
tubulin (microtubules) = experiment: TIRF, tracking of depolymerizing microtubule ends; settings: reference: SKA wild type complex; sites S34

Chain of Ska3 (C13orf3, RAMA1) (Q8IX90 whole entry, looked up, stated change not applied): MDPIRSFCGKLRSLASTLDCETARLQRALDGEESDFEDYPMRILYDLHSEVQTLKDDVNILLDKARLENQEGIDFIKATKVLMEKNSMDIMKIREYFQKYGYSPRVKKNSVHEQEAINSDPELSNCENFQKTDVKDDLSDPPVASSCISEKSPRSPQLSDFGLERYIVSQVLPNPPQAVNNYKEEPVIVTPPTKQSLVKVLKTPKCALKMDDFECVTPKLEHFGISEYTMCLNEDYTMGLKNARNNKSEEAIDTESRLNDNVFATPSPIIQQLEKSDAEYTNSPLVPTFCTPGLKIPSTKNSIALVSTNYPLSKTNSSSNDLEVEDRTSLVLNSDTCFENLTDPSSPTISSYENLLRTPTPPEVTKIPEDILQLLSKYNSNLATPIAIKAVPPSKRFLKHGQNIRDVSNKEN
Chain of 6His-Ska1/Ska2/Ska3 (WT) (from UniProt Q96BD8 1-255; Q8WVK7 1-121; Q8IX90 1-412) (complex) (Q96BD8 whole entry): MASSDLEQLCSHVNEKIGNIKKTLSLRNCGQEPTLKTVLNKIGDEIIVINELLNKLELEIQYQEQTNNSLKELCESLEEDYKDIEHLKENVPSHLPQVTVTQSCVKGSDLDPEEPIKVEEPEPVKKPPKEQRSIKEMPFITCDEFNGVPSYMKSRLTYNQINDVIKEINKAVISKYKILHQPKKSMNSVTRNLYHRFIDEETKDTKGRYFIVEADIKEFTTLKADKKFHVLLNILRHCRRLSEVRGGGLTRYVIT
Chain of 6His-Ska1/Ska2/Ska3 (WT) (from UniProt Q96BD8 1-255; Q8WVK7 1-121; Q8IX90 1-412) (complex) (Q8WVK7 whole entry): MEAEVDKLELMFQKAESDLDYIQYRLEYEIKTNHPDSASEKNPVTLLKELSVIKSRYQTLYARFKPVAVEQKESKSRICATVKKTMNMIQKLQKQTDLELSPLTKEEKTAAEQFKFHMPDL
Chain of 6His-Ska1/Ska2/Ska3 (WT) (from UniProt Q96BD8 1-255; Q8WVK7 1-121; Q8IX90 1-412) (complex) (Q8IX90 whole entry): as the sequence (Q8IX90 whole entry, looked up, stated change not applied) above

stoichiometry N (6His-Ska1/Ska2/Ska3 (WT)) | other: median post/pre-conversion intensity ratio (tubulin (microtubules)) | Substance
2 | – | 6His-Ska1/Ska2/Ska3 (WT) (from UniProt Q96BD8 1-255; Q8WVK7 1-121; Q8IX90 1-412) (complex)
– | same; reference 1.01 | Ska3 (C13orf3, RAMA1) (from UniProt Q8IX90) SKA S34A complex
